For test [1], the target named is FG repeat domain of 669 residues with non-charged spacers and 36 FSFG motifs. The test can be described thus: FG phase partitioning assay.
The target is the same in test [2]. The test can be described thus: partitioning into an FG phase (confocal laser scanning microscopy); as a1 but FG phases assembled from the SLFG or the FSFG repeat domain (stocks in 4 M guanidinium hydrochloride, diluted 50-fold).
Test [3] deals with Nup98-type FG domain comprising 52 perfect 12-mer GLFG repeat units (prf.GLFG52x12). The test can be described thus: FG phase partitioning assay.
Test [4] shares this target. The test can be described thus: FG phase partitioning assay. This is another data set of the same source.
Test [5] shares this target. The test can be described thus: FG phase partitioning assay. The source holds these as a separate data set.
The mark [6] stands for this setting: fluorescence intensity at rim of FG particles.
[7] abbreviates: fluorescence intensity in center of FG particles.
Setting [8] is: signal in center of FG particles.

Take “20-nm T1 pentamer-only capsid spheres (CA P1A+G60A+G61P), EGFP-labelled P90A”: the response in test [1] (setting [6]) is 45000; in test [1] (setting [7]) it was 51000. Also, the percent of parent in test [1] (signal at rim of FG particles) worked out at 240%; in test [1] (setting [8]), 260%.
Consider “20-nm pentamer-only spheres of CA A92E (CA P1A+G60A+G61P background), EGFP-labelled (complex)”, for which the fold reduction of partitioning against WT in test [2] was below 100 fold.
Still for that read-out and setting: for “20-nm pentamer-only spheres of CA G94D (CA P1A+G60A+G61P background), EGFP-labelled (complex)” the value was below 100 fold.
The same measure, in the same setting: with “20-nm pentamer-only spheres of CA H87Q (CA P1A+G60A+G61P background), EGFP-labelled (complex)” the figure was below 100 fold; with “20-nm pentamer-only spheres of CA Q9E (CA P1A+G60A+G61P background), EGFP-labelled (complex)”, below 100 fold.
As for “CLPs of CA G89V, filled with sinGFP4a (complex)”, the fold partitioning against wild type in test [2] is 4 fold.
For the substance “conical CLPs (capsid-like particles) of wild-type CA (CA-P1A), filled with sinGFP4a H87Q; A92E; G94D”, in test [3] (setting [8]), the percent of parent worked out at 2.6%. Also, the response was 8200 in test [4] (setting [6]) and 670 in test [4] (setting [7]).
With “conical CLPs (capsid-like particles) of wild-type CA (CA-P1A), filled with sinGFP4a P123E”, the percent of parent in test [4] (signal at rim of FG particles) was 80%. The response in test [5] (setting [6]) stood at 17000; in test [5] (setting [7]), 7400.
As to “conical CLPs (capsid-like particles) of wild-type CA (CA-P1A), filled with sinGFP4a Q9E”, the percent of parent in test [3] (signal at rim of FG particles) was found to be 89%; in test [3] (setting [8]) it was 13%; in test [4] (signal at rim of FG particles), 120%; in test [4] (setting [8]), 14%. Besides, the response in test [4] (setting [6]) worked out at 24000; in test [4] (setting [7]) it was 3500; in test [5] (setting [6]), 26000; in test [5] (setting [7]), 3400.
Consider “conical CLPs (capsid-like particles) of wild-type CA (CA-P1A), filled with sinGFP4a Q9E; A92E”, for which the percent of parent came out at 36% in test [3] (signal at rim of FG particles) and 2.5% in test [3] (setting [8]). Also, the response in test [4] (setting [6]) stood at 9700; in test [4] (setting [7]), 660.
For “conical CLPs (capsid-like particles) of wild-type CA (CA-P1A), filled with sinGFP4a R97K”, the percent of parent in test [4] (signal at rim of FG particles) stood at 90%; in test [4] (setting [8]) it was 20%. Moreover, the results for the response in test [5] (setting [6]) and in test [5] (setting [7]) were 20000 and 5000, respectively.
Consider “conical CLPs (capsid-like particles) of wild-type CA (CA-P1A), filled with sinGFP4a V86E; A88E; I91E; A92E”, for which the percent of parent in test [3] (signal at rim of FG particles) turned out to be 1%; in test [3] (setting [8]), 0.7%. For the same substance, the response in test [4] (setting [6]) amounted to 260; in test [4] (setting [7]) it was 190.

These data come from article PMC12700808.
